Laboratory results: the supplement of paper PMC9170038

tested on: MS2 coat protein; test: apparent KD of MS2 coat protein; higher = weaker reporter binding; details: Eterna round: R107; input ligand: theophylline 2 mM
How it was run: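 Apparent KD was obtained for each design as the median of normalised binding-curve fits over its clusters. RNA switches transcribed on-chip from Illumina sequencing clusters were titrated with SNAP-549-labelled MS2 coat protein (twofold steps, 0.7 or 1.5 nM to 3 µM) in 100 mM Tris-HCl pH 7.5, 80 mM KCl, 4 mM MgCl2, without or with constant ligand.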

| Sequence | apparent KD of MS2 coat protein [µM] |
| --- | --- |
| AAAUGUACGUCGGCCGCCACUGCGCUGAAGACAGUCACAUGAGGAUCACCCAUGUACGACAAGGGUAGGACCGGGAUGUGAGGGU [Rate] | 0.217 |
| AUACAUGAGGAUCACCCAUGUGAUGGCCGGCGAGGACCGGUACGGCCGCCACUCGUGAUCCGUCCUGAGAGCAAAGCUCUCAGCA [Macete] | 0.292 |
| CACAUGAGGAUCACCCAUGUCUGAACUGAAGGAGCGCUAAAUAAGGCAGGUAGGUCGCGGAAUUUUGUGUGCAUAUGCACAUGGG [9.P] | 0.0269 |
| GUGUGGAGCUCGGCCGCCACUCAAACAUGAGGAUCACCCAUGUAAAACAUGAGGAUCACCCAUGUGAGGACCGGGAGAAACACGA [Exclusion Tryptophan B GF8] | 0.408 |
| AAUUCCUCACAUGAGGAUCACCCAUGUGAAGGAGCGCCGAAUAAGGCAGGUAGGUCGCACAUGGAAACCUCUACGAAAGUAGUAA [XArg-A 3 NuV1V2] | 0.0182 |
| AAUUAAAACUGAAGGAGCGUCGUGCGUGGGUGCGUCCCACAUGAGGAUCACCCAUGUGGUUGACAGGUAGGUCGCAGAAUAAUUU [Exclusion - Arginine B] | 0.155 |

same assay, conditions: Eterna round: R107; input ligand: tryptophan 2.4 mM

| Sequence | apparent KD of MS2 coat protein [µM] |
| --- | --- |
| CACAUGAGGAUCACCCAUGUCUGAACUGAAGGAGCGCUAAACAAGGCAGGUAGGUCGCGGAAUUUUGUGUGCAUAUGCACAUGGG [9.O] | 0.0258 |
| GGAUAGGACACGGCCGCCACUAUCUAGGAUACUAGCAACAUUUGGGUAUAUGAGGAUCACCCAUAUAGGACCGGGUGUCCUAUCG | 0.471 |
| UGACAUUGCUGCGAUACCAGACAUGAGGAUCACCCAUGUACCAAGAAAACGUACAUAAAUGUCCCUUGGCAGCGCAGCAAUGUCU [MAT - Exclusion Theophlline B - Mod of Eli - D25] | 0.806 |
| CCCAGUCAUAGCAAAGCAAAUAUACUCGAAGGAGCGUCAUAGUAGGCAGGUAGGUCGCGAGACAUGAGGAUCACCCAUGUAGAGA [ooomullin] | 0.0413 |
| UUAUGAUGUUCCGAUACCAGCCAUGUGGUUCUAACUUAACAUGAGGAUCACCCAUGUACCGGCCCUUGGCAGCGGAUGUGGAUUA [Flamini] | 0.0126 |
| GGAUAGGACACGGCCGCCACUACCUAGGAUACUAGCAACAUUUGGGUACAAGAGGAUCACCCUUGUAGGACCGGGUGUCCUAUCG | 0.059 |
| UAAAACAUGAGGAUCACCCAUGUAAAUGAUACCAGAGUGAUGAUCCUCCCUUGGCAGCAUAACGCUGAUUGAUUACAAUCAGCGA [Mat - Same State Theophlline A - Mod of Eli - D22] | 0.0583 |
| CCGUUUUAUGGCGACAUAGGGCGGACUGAAGGAGCGGUAAAACAGCCAGGUAGGUCGCAGAGAUCCACAUGAGGAUCACCCAUGU [!0.aC] | 0.0379 |
| UGGUGUAGGGUAAAUAGGAUUAGUACAGAAGGAGCGCGAAUAAACGCAGGUAGGUCGCUGGAAUAACAUGAGGAUCACCCAUGUC [Same State Arginine A GF 26] | 0.0278 |
| ACAUGAGGAUCACCCAUGUACAUGAGGGAAGGAGCGGUACAUGUGCCAGGUAGGUCGCCCAACAGCAUCAGCCAUGUACAACAGG [zqwmullin] | 0.061 |
| AAUUAUCACGGAAGGAGCGUCAUGAAAUUGAUACAUGAGGAUCACCCAUGUGAGUGUUAGAGACAGGUAGGUCGCCGAUUAUUGA [JR_AAArginiB_Sub028] | 0.031 |
| AGUAACAUGAGGAUCACCCAUGUAUGAGAAGGAGCGUGUUUUAACACAGGUAGGUCGCUCAAUAUUAAUUUAUUAGAUACAUUUA [JR_SSArginiA_Sub006] | 0.0343 |
| AUAGUCUAGAGUGAUACCAGACUACAUGAGGAUCACCCAUGUAUCUUUUGGUUAUCAUGUGUCCCUUGGCAGCACGCAUGUAUAG [JR_ExcTheophyB_Sub013] | 0.00994 |
| GGACUAACCAGAAGGAGCGACACGCAGAAACUGCUAAAUCCUCCGCACGAGGAUCACCCGUGUCAGGUAGGUCGCUGGUUAGUCG [ArgBX 28] | 0.0499 |
| AACAUCUGGCGUGAUACCAGCCACAUGAGGAUCACCCAUGUCAACACUCGCAAUUGCGACGGCCCUUGGCAGCACGCAUCCUCAG [Sorioncege] | 0.0609 |
| GUUAUAGACGGAAGGAGCGCGACCACAUGAGGAUCACCCAUGUAUUGUGUUGGUAAUAGGUCGCAGGUAGGUCGCCGGUUAAUGA [#04 Same State - Arginine B] | 0.031 |
| ACAUGAGGAUCACCCAUGUGUCCUCGAAAACGAGGACCGGUACGGCCGCCACUCGAAAUAAGCUGUUGACGAAAAGUCAGCAGCA [Mat - Exclusion - Trytophan A - D21] | 0.316 |

| Sequence | apparent KD of MS2 coat protein [µM] |
| --- | --- |
| CGGUUUGUGAUGGAUACCAGCAGAGUGACUGUUUAUCCUGACAUGAGGAUCACCCAUGUGUGCCCUUGGCAGCUGUUGUGGGCUG [8.aA] | 0.0657 |
| AGCAUGUUAGCAGAUACCAGACGUUUUAUGAUCCAUGUAACAUGAGGAUCACCCAUGUAAGUCCCUUGGCAGCUGAAAUAAUGCA [JR_SSTheophyB_Sub011] | 0.127 |
| AUACAUGAGGAUCACCCAUGUCAUUCAGAAGGAGCGUCAUUUUAGACAGGUAGGUCGCUGAUAUUAUUCUUAUACUUUAUGUUUA [JR_ExcArginiA_Sub022] | 0.0202 |
| UUUAGUAUCUUAGAUACCAGUUUUGGGUGCUGAACGUCUCACAUGAGGAUCACCCAUGUAAACCCUUGGCAGCUACAUACGUAAA [theeternabot_exclusion_MS2_Theo_B_41] | 0.0519 |
| CGCACAUGAGGAUCACCCAUGUGAGGGCGGCGAGGACCGGUACGGCCGCCACUCGCAGGACAUGAGGAUCACCCAUGUGCCGCCG [SSTA DOUBLE!!! :-D] | 0.351 |
| UGAGUUCGCUGAUGGGCUACGUCAGGUGAUACCAGCCACUCCCGCGGCCCUUGGCAGCACAUGAGGAUCACCCAUGUAGAGCUUG [Lazaceonus] | 0.0141 |
| GCGCGCGCCGAAAGGCGCGCGUGUUGCGAUACCAGCCCGGAAACGGGCCCUUGGCAGCGCACAUGAGGAUCACCCAUGUCAUGUU [Exclusion - Theophylline A Attempt #1 (HarryS)] | 0.0219 |
| GGCCGAUGGUGCGAUACCAGCUUGAGUGUACUGGCCAGGUACAUGAGGAUCACCCAUGUAAGCCCUUGGCAGCGCGUCAGAGGCC [#1 Exclusion - Theophylline B Attempt #21 (HarryS)] | 0.0113 |
| AUACAUGAGGAUCACCCAUGUAUAGUCGAUACCAGCUCAAGGAAGAGCCCUUGGCAGCGACACUGGUAUCCAUGGGUGAUACCAG [(Ms2)-(Theo)-(T)'-(M)'-(T)''_Design4] | 0.0193 |
| AUACAUGAGGAUCACCCAUGUGAUGGCCGGCGAGGACCGGUACGGCCGCCACUCGUGAUCCGUCCUGAGAGCAAAGCUCUCAGCA [Macete] | 0.337 |
| CACAUGAGGAUCACCCAUGUCUGAACUGAAGGAGCGCUAAAUAAGGCAGGUAGGUCGCGGAAUUUUGUGUGCAUAUGCACAUGGG [9.P] | 0.0239 |
| GAGCUGAUGUAGAGCUAAUAUAAGAGAGAUACCAGUACAGAAAUGUACCCUUGGCAGCUCAACUUUACAUGAGGAUCACCCAUGU [Ex Theophylline A 21] | 0.016 |
| UCGACAGUGAACGAUACCAGCGUCACGUGGCCGGUGGUCACAUGAGGAUCACCCAUGUAACGCCCUUGGCAGCGUGCACGUAUCA [Latedirius] | 0.0205 |
| ACUAACUAUAGUGAUACCAGACGUACAUGAGGAUCACCCAUGUUACAUUCUUGGUUAAAAGUCCCUUGGCAGCACGAUAAGUUCG [JR_Nu_ExcTheophyB_Sub025] | 0.01 |
| AAUUCCUCACAUGAGGAUCACCCAUGUGAAGGAGCGCCGAAUAAGGCAGGUAGGUCGCACAUGGAAACCUCUACGAAAGUAGUAA [XArg-A 3 NuV1V2] | 0.0156 |
| AAUUAAAACUGAAGGAGCGUCGUGCGUGGGUGCGUCCCACAUGAGGAUCACCCAUGUGGUUGACAGGUAGGUCGCAGAAUAAUUU [Exclusion - Arginine B] | 0.0366 |
